B1: NLV2 TCR alpha chain (CDR3α only) (parent)
chain: AGPMKTSYDKVI
partner: MLVPMVATV
B2: NLV2 TCR alpha chain (CDR3α only) (parent)
chain: AGPMKTSYDKVI
partner: NLVGMVATV

Variants of: B1
Assay: T-Switch: Jurkat TCRβ−/− cells expressing a CDR3 saturation-mutagenesis library, stained with two peptide-HLA-A*02:01 tetramers (original and novel peptide) plus anti-CD3, FACS-sorted into four gates, gDNA sequenced
Conditions: with HLA-A*02:01 with peptide … (NLV 3-1, the novel peptide), tetramers 1 µg/mL, 30 min on ice, SP, DP and SW gates expanded about 10 days between rounds ('two to three rounds of selection' in the Methods), gate SW: higher = more of the variant in the gate that binds the novel peptide and not the original one = switched binding. Fold enrichment of the CDR3 variant in one FACS gate of a two-tetramer stain, unresolved parent, parent is a CDR3 fragment, scale: fold enrichment, numbering: sequential-on-construct, sequence starts at 1

Row | Variant | enrichment
1 | […] (CDR3 as printed); K5N derived by comparing it with the table's wild-type CDR3 AGPMKTSYDKVI | 0
2 | […] (CDR3 as printed); K10G derived by comparing it with the table's wild-type CDR3 AGPMKTSYDKVI | 0
3 | […] (CDR3 as printed); V11D derived by comparing it with the table's wild-type CDR3 AGPMKTSYDKVI | 0
4 | […] (CDR3 as printed); S7R derived by comparing it with the table's wild-type CDR3 AGPMKTSYDKVI | 0
5 | […] (CDR3 as printed); T6M derived by comparing it with the table's wild-type CDR3 AGPMKTSYDKVI | 0
6 | […] (CDR3 as printed); K10T derived by comparing it with the table's wild-type CDR3 AGPMKTSYDKVI | 0
7 | […] (CDR3 as printed); I12F derived by comparing it with the table's wild-type CDR3 AGPMKTSYDKVI | 0
8 | […] (CDR3 as printed); M4E derived by comparing it with the table's wild-type CDR3 AGPMKTSYDKVI | 0
9 | […] (CDR3 as printed); I12N derived by comparing it with the table's wild-type CDR3 AGPMKTSYDKVI | 0
10 | […] (CDR3 as printed); I12W derived by comparing it with the table's wild-type CDR3 AGPMKTSYDKVI | 0
11 | […] (CDR3 as printed); M4P derived by comparing it with the table's wild-type CDR3 AGPMKTSYDKVI | 0
12 | […] (CDR3 as printed); V11Q derived by comparing it with the table's wild-type CDR3 AGPMKTSYDKVI | 0
13 | […] (CDR3 as printed); D9W derived by comparing it with the table's wild-type CDR3 AGPMKTSYDKVI | 0
14 | […] (CDR3 as printed); I12L derived by comparing it with the table's wild-type CDR3 AGPMKTSYDKVI | 0
15 | […] (CDR3 as printed); V11T derived by comparing it with the table's wild-type CDR3 AGPMKTSYDKVI | 0
16 | […] (CDR3 as printed); M4W derived by comparing it with the table's wild-type CDR3 AGPMKTSYDKVI | 0
17 | […] (CDR3 as printed); D9H derived by comparing it with the table's wild-type CDR3 AGPMKTSYDKVI | 0
18 | […] (CDR3 as printed); G2F derived by comparing it with the table's wild-type CDR3 AGPMKTSYDKVI | 0
19 | […] (CDR3 as printed); G2R derived by comparing it with the table's wild-type CDR3 AGPMKTSYDKVI | 0
20 | […] (CDR3 as printed); Y8P derived by comparing it with the table's wild-type CDR3 AGPMKTSYDKVI | 0
21 | […] (CDR3 as printed); M4H derived by comparing it with the table's wild-type CDR3 AGPMKTSYDKVI | 0

Variants of: B2
Assay: as above
Conditions: with HLA-A*02:01 with peptide … (NLV 2-2, the original bait), tetramers 1 µg/mL, 30 min on ice, DP and SW gates expanded about 10 days between rounds ('two to three rounds of selection' in the Methods), gate SP: higher = more of the variant in the gate that binds the original peptide and not the novel one = retained original binding. Fold enrichment of the CDR3 variant in one FACS gate of a two-tetra, unresolved parent, parent is a CDR3 fragment, scale: fold enrichment, numbering: sequential-on-construct, sequence …

Row | Variant | enrichment
22 | […] (CDR3 as printed); V11G derived by comparing it with the table's wild-type CDR3 AGPMKTSYDKVI | 0
23 | […] (CDR3 as printed); M4N derived by comparing it with the table's wild-type CDR3 AGPMKTSYDKVI | 0
24 | […] (CDR3 as printed); M4L derived by comparing it with the table's wild-type CDR3 AGPMKTSYDKVI | 0
25 | […] (CDR3 as printed); G2M derived by comparing it with the table's wild-type CDR3 AGPMKTSYDKVI | 0.715
26 | […] (CDR3 as printed); A1S derived by comparing it with the table's wild-type CDR3 AGPMKTSYDKVI | 0.551
27 | […] (CDR3 as printed); T6S derived by comparing it with the table's wild-type CDR3 AGPMKTSYDKVI | 0
28 | […] (CDR3 as printed); I12Q derived by comparing it with the table's wild-type CDR3 AGPMKTSYDKVI | 0
29 | […] (CDR3 as printed); K10T derived by comparing it with the table's wild-type CDR3 AGPMKTSYDKVI | 0
30 | […] (CDR3 as printed); K5P derived by comparing it with the table's wild-type CDR3 AGPMKTSYDKVI | 9.21
31 | […] (CDR3 as printed); K10L derived by comparing it with the table's wild-type CDR3 AGPMKTSYDKVI | 0
32 | […] (CDR3 as printed); T6N derived by comparing it with the table's wild-type CDR3 AGPMKTSYDKVI | 0
33 | […] (CDR3 as printed); V11Q derived by comparing it with the table's wild-type CDR3 AGPMKTSYDKVI | 0
34 | […] (CDR3 as printed); Y8S derived by comparing it with the table's wild-type CDR3 AGPMKTSYDKVI | 0
35 | […] (CDR3 as printed); P3S derived by comparing it with the table's wild-type CDR3 AGPMKTSYDKVI | 0
36 | […] (CDR3 as printed); K5F derived by comparing it with the table's wild-type CDR3 AGPMKTSYDKVI | 0
37 | […] (CDR3 as printed); K5M derived by comparing it with the table's wild-type CDR3 AGPMKTSYDKVI | 4.77
38 | […] (CDR3 as printed); M4I derived by comparing it with the table's wild-type CDR3 AGPMKTSYDKVI | 18.9
39 | […] (CDR3 as printed); A1C derived by comparing it with the table's wild-type CDR3 AGPMKTSYDKVI | 0.571
40 | […] (CDR3 as printed); K10R derived by comparing it with the table's wild-type CDR3 AGPMKTSYDKVI | 0
41 | […] (CDR3 as printed); M4Y derived by comparing it with the table's wild-type CDR3 AGPMKTSYDKVI | 0.292
42 | […] (CDR3 as printed); T6C derived by comparing it with the table's wild-type CDR3 AGPMKTSYDKVI | 0
43 | […] (CDR3 as printed); I12H derived by comparing it with the table's wild-type CDR3 AGPMKTSYDKVI | 0
44 | […] (CDR3 as printed); G2I derived by comparing it with the table's wild-type CDR3 AGPMKTSYDKVI | 0
45 | […] (CDR3 as printed); I12V derived by comparing it with the table's wild-type CDR3 AGPMKTSYDKVI | 11.6

Row | Variant | enrichment
46 | […] (CDR3 as printed); K5L derived by comparing it with the table's wild-type CDR3 AGPMKTSYDKVI | 0
47 | […] (CDR3 as printed); Y8G derived by comparing it with the table's wild-type CDR3 AGPMKTSYDKVI | 0
48 | […] (CDR3 as printed); I12C derived by comparing it with the table's wild-type CDR3 AGPMKTSYDKVI | 0
49 | […] (CDR3 as printed); G2Y derived by comparing it with the table's wild-type CDR3 AGPMKTSYDKVI | 0
50 | […] (CDR3 as printed); G2A derived by comparing it with the table's wild-type CDR3 AGPMKTSYDKVI | 0.952
51 | […] (CDR3 as printed); P3L derived by comparing it with the table's wild-type CDR3 AGPMKTSYDKVI | 0
52 | […] (CDR3 as printed); M4R derived by comparing it with the table's wild-type CDR3 AGPMKTSYDKVI | 0
53 | […] (CDR3 as printed); A1E derived by comparing it with the table's wild-type CDR3 AGPMKTSYDKVI | 0.186
54 | […] (CDR3 as printed); Y8E derived by comparing it with the table's wild-type CDR3 AGPMKTSYDKVI | 0.105
55 | […] (CDR3 as printed); V11P derived by comparing it with the table's wild-type CDR3 AGPMKTSYDKVI | 0
56 | […] (CDR3 as printed); S7K derived by comparing it with the table's wild-type CDR3 AGPMKTSYDKVI | 0
57 | […] (CDR3 as printed); I12E derived by comparing it with the table's wild-type CDR3 AGPMKTSYDKVI | 0.34
58 | […] (CDR3 as printed); K5D derived by comparing it with the table's wild-type CDR3 AGPMKTSYDKVI | 37.8
59 | […] (CDR3 as printed); A1D derived by comparing it with the table's wild-type CDR3 AGPMKTSYDKVI | 0
60 | […] (CDR3 as printed); A1H derived by comparing it with the table's wild-type CDR3 AGPMKTSYDKVI | 1.05
61 | […] (CDR3 as printed); Y8F derived by comparing it with the table's wild-type CDR3 AGPMKTSYDKVI | 0
62 | […] (CDR3 as printed); P3H derived by comparing it with the table's wild-type CDR3 AGPMKTSYDKVI | 0
63 | […] (CDR3 as printed); K5W derived by comparing it with the table's wild-type CDR3 AGPMKTSYDKVI | 5.12
64 | […] (CDR3 as printed); V11E derived by comparing it with the table's wild-type CDR3 AGPMKTSYDKVI | 0
65 | […] (CDR3 as printed); D9L derived by comparing it with the table's wild-type CDR3 AGPMKTSYDKVI | 0
66 | […] (CDR3 as printed); T6V derived by comparing it with the table's wild-type CDR3 AGPMKTSYDKVI | 22.1
67 | […] (CDR3 as printed); S7R derived by comparing it with the table's wild-type CDR3 AGPMKTSYDKVI | 0
68 | […] (CDR3 as printed); D9Q derived by comparing it with the table's wild-type CDR3 AGPMKTSYDKVI | 0
69 | […] (CDR3 as printed); G2P derived by comparing it with the table's wild-type CDR3 AGPMKTSYDKVI | 0.351
